Data: US11318209B2, “Targeting macula densa cells as a new therapeutic approach for kidney disease” (MACULA DENSA CELL LLC, priority 2016, dated 2022)
“Also recorded” adds a separate entry of the source.

What was measured:
[1] = system: Ki67+ proliferating cells in the JGA area; test: Ki67 immunofluorescence of low salt diet+captopril-treated mouse kidneys; type: in vivo
Excerpt: FIG. 7. Ki67 (red nuclei) immunofluorescence of control (FIG. 7A-FIG. 7B) and low salt diet+captopril-treated mouse kidneys (FIG. 7C-FIG. 7D). In contrast to control untreated (FIG. 7A) and control+7-NI (FIG. 7B), a high density of Ki67+ proliferating cells are visible around the JGA interstitium in response to low salt diet+captopril treatment (FIG. 7C). […] Nuclei were labeled blue with DAPI. n=4 each group, §: P<0.05 versus ctrl, *: P<0.05 versus untreated low salt+captopril.
(§1) The increased density of NG2+ cells was 70% inhibited by the administration of the selective COX-2 inhibitor SC58236 (FIG. 6E).

[2] = system: NG2+ cells in the JGA area; test: NG2 immunofluorescence of low salt diet+captopril-treated mouse kidneys; type: in vivo
Excerpt: FIG. 6. NG2 (FIG. 6A, green) and renin (FIG. 6B, red) immunofluorescence of low salt diet+captopril-treated mouse kidneys. […] Nuclei were labeled blue with DAPI. n=4 each group, *: P<0.05.
as §1

[3] = system: NG2-derived progenitor cells; test: Kidney tissue remodeling after 10 days of loop diuretic; type: in vivo; settings: 10 days of treatment in an animal model
Excerpt: FIG. 22. […] Increase in renal cortical mesenchyme-derived cell density (red), remodeling of the entire length of the glomerular (G) arterioles by NG2-derived progenitor cells within 10 days in response to loop diuretics.
The Inventors' initial experimental strategy to show proof-of-principle for this macula densa mechanism was to apply gold-standard whole body approaches to activate this new mechanism (e.g. dietary salt restriction and loop diuretics), which have been known for decades to improve kidney function. One example is the use of the loop diuretic furosemide, which blocks salt-sensing by MD cells and therefore is equivalent to the effects of low dietary salt intake as shown in FIGS. 6-7, 10). […] Furosemide and other loop diuretics have been in human clinical use for decades as efficient anti-hypertensive therapies. In addition to diuretics, the Inventors will explore other small molecules that may have specific MD cell targeting characteristics, and may activate the MD kidney repair program.

MMDD1 cells = test: GFP transfection with MMDD1 homing peptide+GFP cDNA complex; type: cell-based; settings: overnight incubation, fluorescence microscopy
Excerpt: FIG. 19. Selective targeting of MD cells with the MMDD1 homing peptide. […] Note the diffuse cytosolic GFP expression in MMDD1 cells indicating successful escape of the endosomes after fusion protein internalization.
In preliminary data, the Inventors identified a MMDD1 homing peptide based on phage-display, used it as targeting domain, and fused to a histidine-rich amphipathic peptide, optimized for DNA binding properties and gene delivery through endosomal escape. The fusiogenic peptide was synthesized:
The peptide was mixed with pcDNA3.1 GFP and incubated for 1 hour at room temperature. The solution was added to cultured MMDD1 cells (MD cell line), HEK293 cells and M-1 cells (collecting duct cell line), and incubated overnight at 37° C. in a humidified atmosphere (95% air and 5% CO2). Transfection was measured by fluorescence microscopy.

cultured GEnCs [4] = test: Endothelial tube formation assay (in vitro angiogenesis); type: cell-based; settings: standard doses of CCN1 and VEGF
Experimental: FIG. 11. Robust effect of CCN1 on GEnCs: in vitro angiogenesis. Endothelial tube formation assays were performed using cultured GEnCs and standard doses of CCN1 and VEGF. *: P<0.05. Results are shown in FIG. 11A, FIG. 11B, FIG. 11C, FIG. 11D and FIG. 11E.
(§2) CCN1 had no effect on renin cell proliferation and migration (not shown).
In order to reproduce all of these MD-specific protective factors for therapeutic use, the Inventors utilized the existing MMDD1 in vitro cell culture model of MD cells that endogenously produce these factors. Mimicking the in vivo physiological activation of MD cells (low salt diet), the NaCl content of MD tissue culture medium was reduced by half as described earlier. […] The therapeutic strategy with this medium (illustrated in FIG. 21) is the same as above for CCN1, to inject it under the renal capsule for specific kidney targeting.

cultured GEnCs [5] = test: GEnC cell proliferation and cell migration (scratch opening assay); type: cell-based
renin cell = test: Renin cell proliferation and migration; type: cell-based; settings: not shown
Excerpt: as §2

sclerotic glomeruli = test: ADR mouse model of GS, renal subcapsular treatment; type: in vivo
Excerpt: FIG. 17. The effects of CCN1 and MMDD1 conditioned media treatment in the ADR mouse model of GS. FIG. 17A: illustration of study design. FIG. 17B: Effects of CCN1 and MMDD1 media on the number of Ki67+ cells (IF, red) per field. FIG. 17C: Effects of CCN1 and MMDD1 media on the number of p57+ podocytes (IF, red) per glomerulus. Green is autofluorescence for visualization of tissue anatomy.
In other preliminary experiments, mouse (ADR nephropathy resembling human-like FSGS) and rat (PAN-induced FSGS) models of CKD were established. Single renal subcapsular treatment with exogenous recombinant CCN1 was performed at a time point (two weeks after second ADR dose in mice, or after the second dose of PAN in rats) when severe and persistent glomerular pathology was confirmed (FIG. 17A), with subsequent two weeks' follow-up. Animals were placed in metabolic cages weekly for urine collection, and tissues (kidney, aorta, heart, brain, blood) harvested 4 weeks (after first ADR dose in mice), or 2 months (after first PAN dose in rats).
Since the main problem in kidney disease appears to be reduced or absent production of CCN1 by macula densa cells, the Inventors can supplement recombinant CCN1 peptide delivered specifically into the renal parenchyma. In preliminary studies illustrated in FIG. 17, the Inventors used subcapsular injections of recombinant CCN1. However, this is invasive procedure, which would have limited clinical use. A much better non-invasive approach the Inventors are currently testing is to give systemic iv injection of recombinant CCN1 targeted specifically to the kidney blood supply. This is performed by conjugating recombinant CCN1 to a glomerulus homing peptide. The promise and therapeutic benefit of this approach is shown in FIG. 17 in a pre-clinical animal model of CKD.
In order to reproduce all of these MD-specific protective factors for therapeutic use, the Inventors utilized the existing MMDD1 in vitro cell culture model of MD cells that endogenously produce these factors. […]

[6] = BalbC Adriamycin mouse model of FSGS; type: in vivo
Excerpt: FIG. 24. The robust protective effects of treatment with recombinant CCN1 or conditioned MD cell media in the BalbC Adriamycin mouse model of FSGS in vivo. FIG. 24A: Albuminuria (albumin/creatinine ratio, ACR) in the various control and treatment groups before ADR-induced kidney injury (baseline), two weeks later before the start of treatments, and 1 and 4 weeks after treatment with saline, recombinant CCN1, control or low salt-conditioned MD cell media. FIG. 24B-FIG. 24C: Trichrome staining of kidney histological sections.
In other work The Inventors tested the effects and therapeutic potential of the aforementioned novel biologicals. The robust protective effects of treatment with recombinant CCN1 or conditioned MD cell media in the BalbC Adriamycin mouse model of human-like focal segmental glomerulosclerosis (FSGS) in vivo is shown in FIG. 24. […] The development of albuminuria, the most important and clinically relevant functional readout of the failing kidneys was measured in the various control and experimental treatment groups before ADR-induced kidney injury (baseline), two weeks later before the start of treatments, and 1 and 4 weeks after treatment with saline, recombinant CCN1, control or low salt-conditioned MD cell media.

[7] = system: glomerular endothelial cells; test: Serial MPM imaging of glomerular endothelial cells in Cdh5-Confetti mice; type: in vivo, mouse
Experimental: FIG. 15. Tracking the fate of the same glomerular endothelial cells over time in vivo at the single cell level. FIG. 15A-FIG. 15B: Serial MPM imaging of the same glomerulus (G) in the same Cdh5-Confetti mice was performed daily for one week. Endothelial cell distribution was registered using Z-sectioning of the glomerulus from top to bottom at each time point. Compared to baseline (FIG. 15A) when cells of all Confetti colors (membrane-bound CFP (blue), nuclear GFP (green), cytosolic YFP (yellow) and RFP (red)) were evenly distributed within the glomerulus, monochromatic glomeruli developed as early as 4 days (FIG. 15B) after endothelial injury (L-NAME treatment) indicating the presence of single precursor cell-derived colonies. Note the presence of cells in multiple colors in the afferent arteriole (AA, arrow) at baseline (FIG. 15A) including one GFP+ (green) and one RFP+ (magenta) cell at the terminal segment, and the identically colored intra-glomerular cell colonies (mostly green, some magenta) 4 days later (FIG. 15B). FIG. 15C: Schematic of the three directly adjacent JGA cell types (MD, JG renin, and AA EPCs) forming a functional syntitium via cell-to-cell crosstalk to remodel the glomerulus.

[8] = low salt diet+captopril treatment for one week

## O=[N+]([O-])c1cccc2cn[nH]c12 [7-NI]
[1]; [8]
  proliferation of NG2+ cells: completely abolished
[1]; low salt diet+captopril-treated, n=4 each group, P<0.05 versus untreated low salt+captopril
  number of Ki67+ cells in the JGA area: significantly reduced

## NS(=O)(=O)c1ccc(-n2nc(C(F)(F)F)cc2-c2ccc(Cl)cc2)cc1 [SC58236]
[2]; [8]
  inhibition of the increased density of NG2+ cells: 70%
[2]; low salt diet+captopril-treated, n=4 each group, P<0.05
  number of NG2+ cells in the JGA area: significantly reduced

## NS(=O)(=O)c1cc(C(=O)O)c(NCc2ccco2)cc1Cl [furosemide]
[3]
  kidney tissue (vascular and glomerular) remodeling: significant kidney tissue remodeling; also recorded: Robust vascular and glomerular remodeling

## NH2-ACFNDSDMLCGGGKKHLLAHALHLLALLALHLAHALAHLKKA-NH2 (H-ACFNDSDMLCGGGKKHLLAHALHLLALLALHLAHALAHLKKA-NH2; cysteine pairing not given here) [MMDD1 homing peptide+GFP cDNA complex]
MMDD1 cells
  transfection with GFP: successful transfection

B1: CCN1: recombinant CCN family member 1, secreted matricellular protein, angiogenic inducer (protein, UniProt O00622 25-381, looked up)
CCN family member 1: TCPAACHCPLEAPKCAPGVGLVRDGCGCCKVCAKQLNEDCSKTQPCDHTKGLECNFGASSTALKGICRAQSEGRPCEYNSRIYQNGESFQPNCKHQCTCIDGAVGCIPLCPQELSLPNLGCPNPRLVKVTGQCCEEWVCDEDSIKDPMEDQDGLLGKELGFDASEVELTRNNELIAVGKGSSLKRLPVFGMEPRILYNPLQGQKCIVQTTSWSQCSKTCGTGISTRVTNDNPECRLVKETRICEVRPCGQPVYSSLKKGKKCSKTKKSPEPVRFTYAGCLSVKKYRPKYCGSCVDGRCCTPQLTRTVKMRFRCEDGETFSKNVMMIQSCKCNYNCPHANEAAFPFYRLFNDIHKFRD
Cultured GEnCs [4]
  in vitro angiogenesis (tube formation assay) compared with VEGF: more effective
Cultured GEnCs [5]; added to the media of cultured GEnCs
  effect on cell proliferation and migration: robust dose-dependent effect
Cultured GEnCs [5]; not shown
  effects on GEnCs in presence of blocking antibodies for integrins αvβ3 and VEGF receptor blockers: almost completely abolished
Renin cell
  effect on renin cell proliferation and migration: no effect
Sclerotic glomeruli; preliminary mouse and rat studies of GS
  proteinuria: diminished proteinuria
Sclerotic glomeruli; single renal subcapsular treatment, two weeks' follow-up
  increase in Ki67+ proliferating cells in glomeruli: > 20 fold
Sclerotic glomeruli; single treatment, treated versus control groups
  number of p57+ podocytes: significantly increased
[6]; treatment for 5 consecutive days started two weeks after 8 mg/kg ADR iv, 1 and 4 weeks after treatment
  albuminuria (albumin/creatinine ratio, ACR): robust decline
[6]; versus control saline-treated
  glomerulosclerosis and tissue fibrosis (trichrome kidney histology): improved pathology
[7]; subcapsular treatment for one week
  Confetti cell tracing units in glomeruli: high number of Confetti cells formed monochromatic tracing units
[7]; within a few days
  remodeling of the glomerular endothelial layer: rapid and robust remodeling
